Experiments:
[1] = target: T1, GST-cdc25c (200 to 250 amino acids) (UniProt P30307)
T1 sequence: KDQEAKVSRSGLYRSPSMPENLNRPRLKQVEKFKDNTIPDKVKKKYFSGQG

[2] = target: T2, GST-cdc25c (full-length) (Accession number L26584) (UniProt P30307)
T2 sequence: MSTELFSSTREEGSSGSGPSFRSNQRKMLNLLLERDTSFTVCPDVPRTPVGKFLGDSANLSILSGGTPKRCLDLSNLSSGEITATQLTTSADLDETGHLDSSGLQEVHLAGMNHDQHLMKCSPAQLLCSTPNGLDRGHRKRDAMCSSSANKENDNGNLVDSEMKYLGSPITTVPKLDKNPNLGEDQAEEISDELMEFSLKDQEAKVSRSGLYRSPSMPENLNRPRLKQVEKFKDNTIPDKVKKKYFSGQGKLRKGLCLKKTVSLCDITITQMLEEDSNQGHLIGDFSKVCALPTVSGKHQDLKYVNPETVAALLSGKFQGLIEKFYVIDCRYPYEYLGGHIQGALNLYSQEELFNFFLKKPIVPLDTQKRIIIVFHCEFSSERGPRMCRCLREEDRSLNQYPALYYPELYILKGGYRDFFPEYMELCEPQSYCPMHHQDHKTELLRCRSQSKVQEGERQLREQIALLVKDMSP

[3] = target: GST-weel (Accession number U10564) (UniProt P30291)
[4] = target: T3, human Chk1 (Accession number AF016582) protein prepared as a fusion protein with glutathione S-transferase (GST) (UniProt O14757)
T3 sequence: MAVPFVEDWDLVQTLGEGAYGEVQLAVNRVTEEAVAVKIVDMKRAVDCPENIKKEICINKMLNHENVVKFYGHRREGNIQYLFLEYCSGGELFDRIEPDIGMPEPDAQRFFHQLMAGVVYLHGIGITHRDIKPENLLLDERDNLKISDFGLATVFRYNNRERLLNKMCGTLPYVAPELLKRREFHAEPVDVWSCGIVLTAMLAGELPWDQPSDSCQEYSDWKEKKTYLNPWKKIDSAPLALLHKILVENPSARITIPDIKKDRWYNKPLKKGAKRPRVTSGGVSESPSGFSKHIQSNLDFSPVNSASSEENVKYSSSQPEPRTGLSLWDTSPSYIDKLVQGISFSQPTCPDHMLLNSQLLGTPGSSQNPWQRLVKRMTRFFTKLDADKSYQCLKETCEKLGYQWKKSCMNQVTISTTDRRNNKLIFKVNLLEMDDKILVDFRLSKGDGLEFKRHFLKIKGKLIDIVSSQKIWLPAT

[5] = system: histone H1 (J. Biochem. 100, 359, 1986)

GST-weel (Accession number U10564), sequence (P30291 whole entry, looked up, the tested form may be a part): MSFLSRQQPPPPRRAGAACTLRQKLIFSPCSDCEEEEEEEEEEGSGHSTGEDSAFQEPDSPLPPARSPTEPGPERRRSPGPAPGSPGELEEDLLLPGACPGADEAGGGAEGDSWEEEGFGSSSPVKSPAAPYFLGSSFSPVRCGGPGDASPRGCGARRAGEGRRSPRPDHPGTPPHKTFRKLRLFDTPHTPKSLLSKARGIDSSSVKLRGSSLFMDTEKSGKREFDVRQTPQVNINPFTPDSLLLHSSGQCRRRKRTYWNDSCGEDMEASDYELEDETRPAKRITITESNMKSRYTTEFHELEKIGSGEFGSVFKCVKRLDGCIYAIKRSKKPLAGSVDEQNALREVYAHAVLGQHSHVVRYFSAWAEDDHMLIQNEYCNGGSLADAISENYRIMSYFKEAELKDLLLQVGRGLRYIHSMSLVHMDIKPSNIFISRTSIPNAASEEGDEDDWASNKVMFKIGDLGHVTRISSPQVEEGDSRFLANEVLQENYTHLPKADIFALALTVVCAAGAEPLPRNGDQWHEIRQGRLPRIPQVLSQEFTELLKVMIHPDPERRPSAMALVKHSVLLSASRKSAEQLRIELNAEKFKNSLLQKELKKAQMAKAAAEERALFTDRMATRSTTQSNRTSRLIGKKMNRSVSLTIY

Substance | in vitro kinase assay ([gamma-32P]ATP, SDS-PAGE, autoradiography) [1] | in vitro kinase assay ([gamma-32P]ATP, SDS-PAGE, autoradiography) [2] | in vitro kinase assay ([gamma-32P]ATP, SDS-PAGE, autoradiography) [3] | in vitro kinase assay ([gamma-32P]ATP, SDS-PAGE, autoradiography) [4] | in vitro kinase assay ([gamma-32P]ATP, SDS-PAGE, autoradiography) [5]
hCds1 KM mutant (249th lysine converted to methionine, myc/6xHis-tagged, expressed in Sf9 cells) | failed to phosphorylate any substrate | failed to phosphorylate any substrate | failed to phosphorylate any substrate | failed to phosphorylate any substrate | failed to phosphorylate any substrate
recombinant "hCds1" (human Cds1, wild type, myc/6xHis-tagged, expressed in Sf9 cells) | efficiently phosphorylated | efficiently phosphorylated | hardly phosphorylated | hardly phosphorylated | efficiently phosphorylated

Source: patent US20020012964
